Assay results as given in US20120171195A1.
Each block holds one substance with its values, some of them ahead of it.

What was measured:
HLA-B*1401 (human) [1] = target: HLA-B*1401 (human) (UniProt P01889); experiment: Luminex beads; MAb 1/100; PBS only
HLA-B*1511 (human) [2] = target: HLA-B*1511 (human) (UniProt P01889); experiment: Luminex beads; MAb 1/100; PBS only
HLA-B*1801 (human) [3] = experiment: Luminex beads; MAb 1/100; PBS only
HLA-B*4006 (human) [4] = target: HLA-B*4006 (human) (UniProt P01889); experiment: Luminex beads; MAb 1/100; PBS only
HLA-B*4501 (human) = experiment: Luminex beads; MAb 1/100; PBS only
HLA-B*4701 (human) = experiment: Luminex beads; MAb 1/100; PBS only
HLA-B*5801 (human) [5] = experiment: Luminex beads; MAb 1/100; PBS only
HLA-Cw*0303 (human) = experiment: Luminex beads; MAb 1/100; PBS only
HLA-Cw*0501 (human) [6] = experiment: Luminex beads; MAb 1/100; PBS only
HLA-Cw*0602 (human) [7] = target: HLA-Cw*0602 (human) (UniProt P10321); experiment: Luminex beads; MAb 1/100; PBS only
HLA-Cw*0702 (human) [8] = target: HLA-Cw*0702 (human) (UniProt P10321); experiment: Luminex beads; MAb 1/100; PBS only
HLA-Cw*0801 (human) [9] = target: HLA-Cw*0801 (human) (UniProt P10321); experiment: Luminex beads; MAb 1/100; PBS only
HLA-Cw*1402 (human) [10] = target: HLA-Cw*1402 (human) (UniProt P10321); experiment: Luminex beads; MAb 1/100; PBS only
HLA-Cw*1701 (human) [11] = experiment: Luminex beads; MAb 1/100; PBS only
HLA-B*1401 (human) [12] = target: HLA-B*1401 (human) (UniProt P01889); experiment: Luminex beads; MAb 1/100; competitor IgG-free serum
HLA-B*1511 (human) [13] = target: HLA-B*1511 (human) (UniProt P01889); experiment: as above
HLA-B*1801 (human) [14] = experiment: as above
HLA-B*4006 (human) [15] = target: HLA-B*4006 (human) (UniProt P01889); experiment: as above
HLA-B*4101 (human) = HLA-B*4101 (human) (UniProt P01889); experiment: as above
HLA-B*4403 (human) = experiment: as above
HLA-B*5801 (human) [16] = experiment: as above
HLA-Cw*0202 (human) = experiment: as above
HLA-Cw*0302 (human) = HLA-Cw*0302 (human) (UniProt P10321); experiment: as above
HLA-Cw*0501 (human) [17] = experiment: as above
HLA-Cw*0602 (human) [18] = target: HLA-Cw*0602 (human) (UniProt P10321); experiment: as above
HLA-Cw*0702 (human) [19] = target: HLA-Cw*0702 (human) (UniProt P10321); experiment: as above
HLA-Cw*0801 (human) [20] = target: HLA-Cw*0801 (human) (UniProt P10321); experiment: as above
HLA-Cw*1402 (human) [21] = target: HLA-Cw*1402 (human) (UniProt P10321); experiment: as above
HLA-Cw*1701 (human) [22] = experiment: as above
HLA-A*2403 (A24) (human) = experiment: Luminex single-antigen beads; MEM-E/02 1/600; serum Mi127 1/100
HLA-A*3301 (A33) (human) = experiment: as above
HLA-B*0801 (B8) (human) = HLA-B*0801 (B8) (human) (UniProt P01889); experiment: as above
HLA-B*1301 (B13) (human) = experiment: as above
HLA-B*1513 (B77) (human) = experiment: as above
HLA-B*1516 (B63) (human) = experiment: as above
HLA-B*3901 (B39) (human) = HLA-B*3901 (B39) (human) (UniProt P01889); experiment: as above
HLA-B*4801 (B48) (human) = HLA-B*4801 (B48) (human) (UniProt P01889); experiment: as above
HLA-B*5102 (B51) (human) = experiment: as above
HLA-B*5703 (B57) (human) = experiment: as above
HLA-Cw*0304 (human) = experiment: as above
[23] = target: HLA-Cw*0801 (Cw8) (human) (UniProt P10321); experiment: as above
[24] = target: HLA-Cw*1203 (Cw12) (human) (UniProt P10321); experiment: as above
[25] = target: HLA-Cw*1502 (Cw15) (human); experiment: as above

MFI (HLA-B*1401 (human) [1]): 7340 MFI | MFI (HLA-B*1511 (human) [2]): 3430 MFI | MFI (HLA-B*1801 (human) [3]): 3540 MFI | MFI (HLA-B*4006 (human) [4]): 8590 MFI | MFI (HLA-B*4501 (human)): 4770 MFI | MFI (HLA-B*4701 (human)): 3650 MFI | MFI (HLA-B*5801 (human) [5]): 3990 MFI | MFI (HLA-Cw*0303 (human)): 3200 MFI | MFI (HLA-Cw*0501 (human) [6]): 7180 MFI | MFI (HLA-Cw*0602 (human) [7]): 4040 MFI | MFI (HLA-Cw*0702 (human) [8]): 3080 MFI | MFI (HLA-Cw*0801 (human) [9]): 5890 MFI | MFI (HLA-Cw*1402 (human) [10]): 3470 MFI | MFI (HLA-Cw*1701 (human) [11]): 3360 MFI | MFI (HLA-B*1401 (human) [12]): 7080 MFI | MFI (HLA-B*1511 (human) [13]): 3320 MFI | MFI (HLA-B*1801 (human) [14]): 3510 MFI | MFI (HLA-B*4006 (human) [15]): 9090 MFI | MFI (HLA-B*4101 (human)): 3390 MFI | MFI (HLA-B*4403 (human)): 3900 MFI | MFI (HLA-B*5801 (human) [16]): 4570 MFI | MFI (HLA-Cw*0202 (human)): 4110 MFI | MFI (HLA-Cw*0302 (human)): 2200 MFI | MFI (HLA-Cw*0501 (human) [17]): 7530 MFI | MFI (HLA-Cw*0602 (human) [18]): 4180 MFI | MFI (HLA-Cw*0702 (human) [19]): 3090 MFI | MFI (HLA-Cw*0801 (human) [20]): 6070 MFI | MFI (HLA-Cw*1402 (human) [21]): 3290 MFI | MFI (HLA-Cw*1701 (human) [22]): 2820 MFI
Substance: murine monoclonal antibody (MAb) MEM-E/02

% inhibition (HLA-A*2403 (A24) (human)): 36% | MFI (HLA-A*3301 (A33) (human)): 3170 MFI | MFI (HLA-B*0801 (B8) (human)): < 500 MFI | MFI (HLA-B*1301 (B13) (human)): < 500 MFI | MFI (HLA-B*1513 (B77) (human)): < 500 MFI | MFI (HLA-B*1516 (B63) (human)): 1840 MFI | % inhibition (HLA-B*3901 (B39) (human)): 16% | MFI (HLA-B*3901 (B39) (human)): 1480 MFI | % inhibition (HLA-B*4801 (B48) (human)): 16% | MFI (HLA-B*5102 (B51) (human)): 2520 MFI | MFI (HLA-B*5703 (B57) (human)): 917 MFI | MFI (HLA-Cw*0304 (human)): < 500 MFI | MFI [23]: < 500 MFI | MFI [24]: < 500 MFI | MFI [25]: < 500 MFI
Substance: murine monoclonal antibody MAb MEM-E/02
